The source of these data is patent US20200147235A1 (AbbVie / Abbott, published 2020).

Residue numbers refer to the chain shown, from its start.

The labels stand for the following.
B1: huAb108 (antibody, human IgG1, kappa, L234A L235A, V domains shown)
VH: EVQLVQSGAEVKKPGASVKVSCKASGFTFSDYTMAWVRQAPGQGLEWVATIIYSGRGTYYRDAVKGRFTITRDNSTSTLYLELSSLRSEDTAVYYCARQSDDTYYYWGYFDYWGQGTMVTVSS
VL: DIVMTQTPLSLPVTPGEPASINCKSSQSLLFSGNQKNYLAWYLQKPGQSPQLLIYWASTRQSGVPDRFSGSGSGTDFTLKISRVEAEDVGIYYCQQYYDVPYTFGQGTKLEIKR
notes: Framework re-engineered humanized clone (parent huAb15v2); also called CL-huAb108
B2: huAb110 (antibody, human IgG1, kappa, L234A L235A, V domains shown)
VH: B1 VH with S54D, G55A
VL: B1 VL with D99S, V100S
notes: Framework re-engineered humanized clone (parent huAb15v6); also called CL-huAb110
B3: huAb101 (antibody, V domains shown)
VH: EVQLVESGGGLVKPGGSLRLSCATSGFTFIDYYMSWVRQAPGKGLEWLGFIRNKANRYTTEYSASVKGRFTISRDNSKSILYLQMNSLKTEDTAVYYCTRDRPAWFVYWGQGTLVTVSS
VL: DIVMTQTPLSLPVTPGEPASISCKSSQSLLYSSNQKNYLAWYLQKPGQSPQLLIYWASTRESGVPDRFSGSGSGTDFTLKISRVEAEDVGVYYCQQYYSYPYTFGGGTKVEIK
notes: Framework re-engineered humanized clone (parent huAb3v1), expressed as full-length IgG
B4: huAb102 (antibody, human IgG1, kappa, L234A L235A, V domains shown)
VH: B3 VH with K13Q
VL: B1 VL with N22S, F31Y, G33S, Q61E, I91V, D99S, V100Y, Q106G, L110V
notes: Framework re-engineered humanized clone (parent huAb3v1); also called CL-huAb102
B5: huAb106 (antibody, V domains shown)
VH: B1 VH with D102H
VL: B3 VL with S22N, Y31F, S33G, E61Q, V91I, S99D, Y100V, G106Q, V110L
notes: Framework re-engineered humanized clone (parent huAb15v1), expressed as full-length IgG
B6: huAb107 (antibody, V domains shown)
VH: EVQLVESGGGLVQPGGSLRLSCAASGFTFSDYTMAWVRQAPGKGLEWVATIIYSGRGTYYRDAVKGRFTISRDNAKNTLYLQMNSLRAEDTAVYYCARQSDDTYYYWGYFDYWGQGTMVTVSS
VL: B3 VL with S22N, Y31F, S33G, E61Q, V91I, S99D, Y100V, G106Q, V110L
notes: Framework re-engineered humanized clone (parent huAb15v2), expressed as full-length IgG
B7: huAb105 (antibody, V domains shown)
VH: B6 VH with D102H
VL: B3 VL with S22N, Y31F, S33G, E61Q, V91I, S99D, Y100V, G106Q, V110L
notes: as for B5
B8: huAb104 (antibody, human IgG1, kappa, L234A L235A, V domains shown)
VH: B3 VH with K13Q, N56Y, R57G
VL: B1 VL with N22S, F31Y, G33S, Q61E, I91V, D99S, V100Y, Q106G, L110V
notes: Framework re-engineered humanized clone (parent huAb3v2); also called CL-huAb104
B9: huAb103 (antibody, V domains shown)
VH: B3 VH with N56Y, R57G
VL: B3 VL
notes: Framework re-engineered humanized clone (parent huAb3v2), expressed as full-length IgG; also called haAb103
B10: huAb109 (antibody, V domains shown)
VH: B6 VH with S54D, G55A
VL: B3 VL with S22N, Y31F, S33G, E61Q, V91I, Y100S, G106Q, V110L
notes: Framework re-engineered humanized clone (parent huAb15v6), expressed as full-length IgG

One test deals with T1, Human CD98 ECD with N-terminal His-tag (human, UniProt P08195 105-529).
T1 construct: The entry includes the linker and the polyhistidine tag; also called huCD98 ECD
T1 sequence: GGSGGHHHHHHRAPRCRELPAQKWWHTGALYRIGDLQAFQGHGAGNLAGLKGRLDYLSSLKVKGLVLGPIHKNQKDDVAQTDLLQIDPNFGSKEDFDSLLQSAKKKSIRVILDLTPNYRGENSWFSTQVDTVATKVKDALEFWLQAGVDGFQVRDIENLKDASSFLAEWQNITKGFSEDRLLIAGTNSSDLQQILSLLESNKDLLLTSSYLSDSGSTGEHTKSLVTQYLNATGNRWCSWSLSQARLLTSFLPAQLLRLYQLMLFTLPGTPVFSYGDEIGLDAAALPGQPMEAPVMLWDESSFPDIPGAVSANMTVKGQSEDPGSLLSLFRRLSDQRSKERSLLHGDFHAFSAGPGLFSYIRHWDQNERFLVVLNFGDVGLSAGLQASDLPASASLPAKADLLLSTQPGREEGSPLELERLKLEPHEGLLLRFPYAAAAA
Briefly: SPR (Biacore), recombinant CD98 ECD. In general terms: SPR reads the build-up and loss of mass on a sensor chip optically.
Take B1: the Kd – broadly, the free concentration of one partner at which half of the binding sites on the other are occupied at equilibrium, for simple one-to-one binding – worked out at 0.55 nM; the koff (as a rule, the first-order rate constant of dissociation) was found to be 4.1e-05 s⁻¹; the kon (as a rule, a measure of how fast the partners come together) worked out at 75000 M⁻¹ s⁻¹.

As for B2, the Kd came out at 2.3 nM, the koff was determined as 0.0003 s⁻¹ and the kon was 130000 M⁻¹ s⁻¹.

B3: the Kd turned out to be 6.1 nM, the koff came out at 0.0018 s⁻¹ and the kon is 290000 M⁻¹ s⁻¹.

For the molecule B4, the Kd worked out at 5.5 nM, the koff came out at 0.0018 s⁻¹ and the kon turned out to be 330000 M⁻¹ s⁻¹.

As to B5, the Kd amounted to 0.16 nM, the koff was determined as 2.2e-05 s⁻¹ and the kon worked out at 140000 M⁻¹ s⁻¹.

With B6, the Kd came out at 0.33 nM, the koff came to 3.8e-05 s⁻¹ and the kon came out at 110000 M⁻¹ s⁻¹.

For B7, the Kd is 0.17 nM, the koff turned out to be 2.4e-05 s⁻¹ and the kon stood at 140000 M⁻¹ s⁻¹.

For B8, the Kd was 2 nM, the koff stood at 0.00091 s⁻¹ and the kon came out at 450000 M⁻¹ s⁻¹.

Turning to B9, the Kd is 3.4 nM, the koff is 0.00059 s⁻¹ and the kon is 180000 M⁻¹ s⁻¹.

Turning to B10, the Kd turned out to be 1.1 nM, the koff was found to be 0.00017 s⁻¹ and the kon stood at 160000 M⁻¹ s⁻¹.

Another test has as its target T2, Cynomolgus monkey CD98 ECD with C-terminal His-tag (SEQ ID NO: 127) (cynomolgus monkey, UniProt P08195 105-529 (human entry)).
T2 construct: The entry includes the linker and the polyhistidine tag; also called cyCD98 ECD
T2 chain: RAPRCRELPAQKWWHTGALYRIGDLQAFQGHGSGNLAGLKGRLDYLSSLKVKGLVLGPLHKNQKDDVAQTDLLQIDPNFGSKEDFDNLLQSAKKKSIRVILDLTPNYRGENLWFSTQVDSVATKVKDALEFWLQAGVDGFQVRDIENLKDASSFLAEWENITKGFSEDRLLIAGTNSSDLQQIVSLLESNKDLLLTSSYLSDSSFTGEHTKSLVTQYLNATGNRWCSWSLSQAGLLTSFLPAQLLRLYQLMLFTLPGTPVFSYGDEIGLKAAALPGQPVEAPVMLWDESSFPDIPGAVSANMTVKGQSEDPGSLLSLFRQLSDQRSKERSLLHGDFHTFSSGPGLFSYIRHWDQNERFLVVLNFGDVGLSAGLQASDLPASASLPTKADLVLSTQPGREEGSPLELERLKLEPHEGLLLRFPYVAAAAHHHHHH
Briefly: SPR (Biacore), recombinant CD98 ECD.
For the molecule B1, the Kd was 4.6 nM, the koff is 0.00014 s⁻¹ and the kon was found to be 29000 M⁻¹ s⁻¹.

In the case of B2, the Kd amounted to 23 nM, the koff stood at 0.00051 s⁻¹ and the kon stood at 23000 M⁻¹ s⁻¹.

With B3, the dissociation constant (Kd) was found to be 23 nM, the koff was 0.00067 s⁻¹ and the kon is 30000 M⁻¹ s⁻¹.

Consider B4, for which the Kd was found to be 21 nM, the koff was 0.00068 s⁻¹ and the kon worked out at 32000 M⁻¹ s⁻¹.

B5: the Kd was determined as 2.2 nM, the koff was found to be 9.5e-05 s⁻¹ and the kon is 43000 M⁻¹ s⁻¹.

As to B6, the Kd turned out to be 2.7 nM, the koff was 8.7e-05 s⁻¹ and the kon is 33000 M⁻¹ s⁻¹.

Consider B7, for which the Kd was determined as 1.4 nM, the koff was found to be 5.3e-05 s⁻¹ and the kon was 38000 M⁻¹ s⁻¹.

Consider B8, for which the Kd is 14 nM, the koff is 0.00048 s⁻¹ and the kon is 34000 M⁻¹ s⁻¹.

For the molecule B9, the Kd came to 14 nM, the off-rate constant (koff) amounted to 0.00044 s⁻¹ and the kon turned out to be 31000 M⁻¹ s⁻¹.

With B10, the Kd was found to be 12 nM, the koff stood at 0.00031 s⁻¹ and the kon stood at 26000 M⁻¹ s⁻¹.
